Test results: article PMC6555848 (2019)

Assays:
His-tagged ABL1 kinase [1] = target: T1, His-tagged ABL1 kinase (UniProt P00519 1-1130); assay: SPR; two-state model
His-tagged ABL1 kinase [2] = target: T1, His-tagged ABL1 kinase; assay: SPR; two-state model, kd1

T1 sequence (P00519 whole entry): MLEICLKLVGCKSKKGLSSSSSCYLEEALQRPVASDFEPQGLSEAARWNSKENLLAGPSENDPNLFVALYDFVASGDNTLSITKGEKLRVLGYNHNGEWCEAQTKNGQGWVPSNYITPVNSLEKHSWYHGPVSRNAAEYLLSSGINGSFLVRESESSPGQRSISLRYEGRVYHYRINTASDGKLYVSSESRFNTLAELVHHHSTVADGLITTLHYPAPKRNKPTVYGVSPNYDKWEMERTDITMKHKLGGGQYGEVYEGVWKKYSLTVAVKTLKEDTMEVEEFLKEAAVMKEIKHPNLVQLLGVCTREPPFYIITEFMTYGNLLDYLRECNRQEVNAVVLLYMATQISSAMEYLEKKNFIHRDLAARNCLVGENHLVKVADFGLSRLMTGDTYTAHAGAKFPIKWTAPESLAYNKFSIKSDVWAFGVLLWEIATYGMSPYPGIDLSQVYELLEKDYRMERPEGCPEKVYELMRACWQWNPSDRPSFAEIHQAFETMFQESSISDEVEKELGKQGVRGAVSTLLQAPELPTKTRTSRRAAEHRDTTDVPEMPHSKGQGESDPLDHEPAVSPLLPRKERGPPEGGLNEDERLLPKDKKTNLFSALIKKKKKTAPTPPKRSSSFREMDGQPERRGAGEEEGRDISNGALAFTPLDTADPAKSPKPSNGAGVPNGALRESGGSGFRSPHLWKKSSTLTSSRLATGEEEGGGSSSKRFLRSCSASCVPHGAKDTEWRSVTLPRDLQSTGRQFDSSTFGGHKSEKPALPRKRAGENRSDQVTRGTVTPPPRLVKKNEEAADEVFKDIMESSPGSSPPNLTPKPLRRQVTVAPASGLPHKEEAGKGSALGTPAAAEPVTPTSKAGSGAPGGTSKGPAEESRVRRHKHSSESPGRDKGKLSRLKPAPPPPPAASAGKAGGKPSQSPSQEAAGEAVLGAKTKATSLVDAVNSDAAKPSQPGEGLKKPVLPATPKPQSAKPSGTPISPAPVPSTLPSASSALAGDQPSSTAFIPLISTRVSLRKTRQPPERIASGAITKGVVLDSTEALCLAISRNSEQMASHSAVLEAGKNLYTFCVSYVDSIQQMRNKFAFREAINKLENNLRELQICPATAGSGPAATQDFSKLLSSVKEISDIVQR

Kd (His-tagged ABL1 kinase [1]): 280 nM | koff (His-tagged ABL1 kinase [2]): 93.9 s⁻¹
B1: full-length human STAT5B (M1-S787) (natural protein)
chain: MAVWIQAQQLQGEALHQMQALYGQHFPIEVRHYLSQWIESQAWDSVDLDNPQENIKATQLLEGLVQELQKKAEHQVGEDGFLLKIKLGHYATQLQNTYDRCPMELVRCIRHILYNEQRLVREANNGSSPAGSLADAMSQKHLQINQTFEELRLVTQDTENELKKLQQTQEYFIIQYQESLRIQAQFGPLAQLSPQERLSRETALQQKQVSLEAWLQREAQTLQQYRVELAEKHQKTLQLLRKQQTIILDDELIQWKRRQQLAGNGGPPEGSLDVLQSWCEKLAEIIWQNRQQIRRAEHLCQQLPIPGPVEEMLAEVNATITDIISALVTSTFIIEKQPPQVLKTQTKFAATVRLLVGGKLNVHMNPPQVKATIISEQQAKSLLKNENTRNDYSGEILNNCCVMEYHQATGTLSAHFRNMSLKRIKRSDRRGAESVTEEKFTILFESQFSVGGNELVFQVKTLSLPVVVIVHGSQDNNATATVLWDNAFAEPGRVPFAVPDKVLWPQLCEALNMKFKAEVQSNRGLTKENLVFLAQKLFNNSSSHLEDYSGLSVSWSQFNRENLPGRNYTFWQWFDGVMEVLKKHLKPHWNDGAILGFVNKQQAHDLLINKPDGTFLLRFSDSEIGGITIAWKFDSQERMFWNLMPFTTRDFSIRSLADRLGDLNYLIYVFPDRPKDEVYSKYYTPVPCESATAKAVDGYVKPQIKQVVPEFVNASADAGGGSATYMDQAPSPAVCPQAHYNMYPQNPDSVLDTDGDFDLEDTMDVARRVEELLGRPMDSQWIPHAQS
